Data from the nanobody polyreactivity screen of Harvey et al. (2022).

Experiment: yeast display, Sf9 membrane polyspecificity reagent, FACS + sequencing; frameworks hold sequencing errors
Method in brief: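 Galactose-induced (36–48 hours) yeast carrying a synthetic nanobody display library were exposed to 10% biotinylated, detergent-solubilized Sf9 membrane reagent at 4 °C for 1 hour. FACS followed streptavidin microbead enrichment, using low and high (top ~1%) gates for expression (anti-HA) and reagent binding (streptavidin). Colony PCR, MiSeq 2 × 250 sequencing and CDR-length filtering followed. Labels for polyreactivity reflect the gate of origin.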

Sequence | polyreactivity (PSR sort gate)
QVQLVESGGGLVQAGGSLRLSCAASGNTFLPYAMGWYRQAPGKERELVAAISWSGGSTYYADSVKGRFTISRDNAKNTVYLQMNSLKPEDTAVYYCARRGYQRYLSSYYYWGQGTQVTVSS | high polyreactivity
QVQLVESGGGLVQAGGSLRLSCAASGNTFLYYAMGWYRQAPGKEMELVASINLSDGSTYYADSVKGRFTISRDNAKNTVYLQMNSLKPEDTAVYYCAAVYGGYTIYDYWGQGTQVTVSS | low polyreactivity
QVQLVESGGGLVQAGGSLRLSCAASGNTFNKYAMGWYRQAPGKERELVAAISYSGGSTYYADSVKGRFTISRDNAKNTVYLQMNSLKPEDTAVYYCNAVYYVYPRRYDYWGQGTQVSVSS | high polyreactivity
QVQLVESGGGLVQAGGSLRLSCAASGNTFNPNAMGWYRQAPGKERELVAVIRFRGGSTYYADSVKGRFTISRDNAKNTVYLQMNSLKTEDTAVYDCAADFLYYYLRYYYWGQGTQVTVSS | high polyreactivity
QVQLVESGGGLVQAGGSLRLSCAASGNTFPLYAMGWYRQAPGKEREMVAAITSSAGSTYYADSVKGRFTISRDNAKNTVYLQMNSLKPEDTAVYYCNARRSDGKVVGYSYSHRNVEYWGQGTQVTVSS | low polyreactivity
QVQLVESGGGLVQAGGSLRLSCAASGNTFPPNAMGWSRQAPGKERELVAAISWSGDSTYYADSVKGRFTISRDNAKNTVYLQMNSLKPEDTAVYYCAAAIFGEYEYWGQGTQVTVSS | low polyreactivity
QVQLVESGGGLVQAGGSLRLSCAASGNTFPPNAMGWYRQAPGKERELVAAISWSGDSTYYADSVKGRFTISRDNAKNTVYLQMNSLKPEDTAVYYCAAAIFGEYEYWGQGTQVTVSS | low polyreactivity
QVQLVESGGGLVQAGGSLRLSCAASGNTFREYTMGWYRQAPGKERELVAGISGSGGRTYYADSVKGRFTISRDNAKNTVYLQMNSLKPEDTAVYYCNARWYYGIGYNYWGQGTQVSVSS | high polyreactivity
QVQLVESGGGLVQAGGSLRLSCAASGNTFRWYDMGWYRQAPGKERELVAGITRVGCTNYADSVKGRFTISRDNAKNTVYLQMNSLKPEDTAVYYCAARPRWFYGYPYGIIGYDYWGQGTQVTVSS | high polyreactivity
QVQLVESGGGLVQAGGSLRLSCAASGNTFSTNAMGWYRHAPGKERELVASISTNGGSTYYADSVKGRFTISRDNAKQTVYLQKNSLKPEDTAVYYCAAYVDWGVWAYLYEYWGQGTQVTVSS | low polyreactivity
QVQLVESGGGLVQAGGSLRLSCAASGNTFTFYAMGWYRQAPGKERELVASITGRGGSTYYADSVKGRFTISRDNAKNTVYLQMNSLKPEDTAVYYCNADLPAYGLQGDDYWGQGTQVTVSS | low polyreactivity
QVQLVESGGGLVQAGGSLRLSCAASGNTFTYYAMGWYRQAPGKERELVAAINIDVASTYYADSVKGRFTISRDIAKNTVYLQMNSLKPEDTAVYYCAAEVGVYPVYWYDYWGQGTQVTVSS | low polyreactivity
QVQLVESGGGLVQAGGSLRLSCAASGNTFVKYTMGWYRQAPGKERELVAAITWSGGSTSYADSVKGRFTLSRDNAKNTVYLQMNSLKPEDTAVYYCAAAWSHSRWDTHDYWGQGTQVTVSS | low polyreactivity
QVQLVESGGGLVQAGGSLRLSCAASGNTFWFYGMGWYRQAPGKERELVAAITSGGSTDYADSVKGRFTISRDNAKNTVYLLLNSLKPEDTAVYYCAAEPVAYYGSSYGYWGQGTQVTVSS | low polyreactivity
QVQLVESGGGLVQAGGSLRLSCAASGNTFWGNAMGWYRQAPGKERELVATISASSGSTYYADSVKGRFTISRDNAKNTVYLQMNSLKPEDTAVYYCAKTALRYLKHGRTKGDYWGQGTQVTVSS | low polyreactivity
QVQLVESGGGLVQAGGSLRLSCAASGNTFWQYAMGWYRQAPGKERELVAAITRSTGSTYYADSVKGRFTISRDNAKNTVYLQMNSLKPEDTAVYYCAADFYRHYFRVDSWGQGTQVTVSS | low polyreactivity

Sequence | polyreactivity (PSR sort gate)
QVQLVESGGGLVQAGGSLRLSCAASGNTFWRYTMGWYRQAPGKERELVAAISSSGGSTYYADSVKGRFTISRDNAKNTVYLQMNSLKPEDTAVYYCAAERRLYKIFSYGYWGQGTQVTVSS | high polyreactivity
QVQLVESGGGLVQAGGSLRLSCAASGNTFYANTMGWYRQARNERELVAAITSGTYADSVKGRFTISRDNAKNTVYLQMNSQKPEDTAVYYCAREESLYVTDPGPSKLDYWGQGTQVTVSS | low polyreactivity
QVQLVESGGGLVQAGGSLRLSCAASGNTFYAYAMGWYRQAPGKERELVAAIARGGNTYYADSVKGRFTISRDNAKNTVYLQMNSLKPEDTAVYYCHAYYPIRSSPYGYYYWGQGTQVTVSS | high polyreactivity
QVQLVESGGGLVQAGGSLRLSCAASGNTFYGYAMGWNRQAPGKERELVASITLSGDSTYYADSVKGRFTISRDNEKNTVYLQMNSLKPEDTAVYDCAGVYTYPLGYYHYTYDYWGQGTQVTVSS | low polyreactivity
QVQLVESGGGLVQAGGSLRLSCAASGNTFYPNAMGWYRQAPGKERELVAAITTSGGTTYYADSVKGRFTISRDNAKNTVYLQMNSLKPEDTAVYYCAAYWSRDKYDYWGQGTQVTVSS | low polyreactivity
QVQLVESGGGLVQAGGSLRLSCAASGNTFYRYAMGWYRQAPGKERELVAAISWSGSSTYYADSVKGRFTISRDNAKNTVYLQMNSLKPEDTAVYYCAVYYTRIGPRYDYWGQGTQVTVSS | high polyreactivity
QVQLVESGGGLVQAGGSLRLSCAASGNTFYSYAMGWYRQAPGKERELVAAITWGGRRKFADSVKGRFTSSRDNAKITVYLQMNSLKPEDTAVYYCAARLFHGKTKFDYSGQGTQVTVSS | high polyreactivity
QVQLVESGGGLVQAGGSLRLSCAASGNTFYVYAMGWYRQAPGKERELVADITWSGGSTYYADSVKGRFTISRDNAKNTVYLQMNSLKPEDTAVYYCNADYYYQLWELEYYYWGQGTQVTVSS | high polyreactivity
QVQLVESGGGLVQAGGSLRLSCAASGNTIHWNFMGWYRQATGKERELVATITFSGSSTYYADSVKGRFTISRDNAKNTVYLQMNSLKPEDTAVYYCAKDFLGDGTSIEYGGSEYDYWGQGTQVTVSS | low polyreactivity
QVQLVESGGGLVQAGGSLRLSCAASGNTINVNTMGWYRQAPGKERDLVAAISKRGGSTYYADSVKGRFTISRDNAKNTVYLQMNSLKPEDTAVYYCDKQVSLPRYHYGSAPYGYWGQGTQVTVSS | high polyreactivity
QVQLVESGGGLVQAGGSLRLSCAASGNTLDWYAMGWYRQAPGKERELVAAISSAGSTSYADSVKGRFTISRDNAKNTVYLQMNSLKPEDTAVYYCNVDVYSKDANFQSFASEYDYWGQGTQVTVSS | low polyreactivity
QVQLVESGGGLVQAGGSLRLSCAASGNTLRYYAMGWYRQAPGKERELVAAITRRGGSTYADSVKGRFTISRDNAKNTVYLQMNSLKPEDTAVYYCNRVLYDHSFPYNRGYDYWGQGTQVTVSS | high polyreactivity
QVQLVESGGGLVQAGGSLRLSCAASGNTLYQYAMGWYRQAPGKERELVASITWSGSSTYYADSVKGRFTISRDNAKNTDDLQMNSLKPEDPAVYYCAAVVYYTFDYCGQGTQVTVSS | low polyreactivity
QVQLVESGGGLVQAGGSLRLSCAASGNTVNFYAMGWYREAPGKERELVASITSGGGTNYADSVKGRFTISRDNAKNTVYLQMNSLKPEETAVYFCAAQFYYHFRFHCDWGQGTQVTVSS | low polyreactivity
QVQLVESGGGLVQAGGSLRLSCAASGPIFGFNAMGWYRQAPGKERELVARISSVGSTNYADSVKGRFTISRDNAKNTVYLQMNSLKPEDTAVYYCAAKRYYTQSSYYLALYDYWGQGTQVTVSS | low polyreactivity
